B1: TSHR Asp232 to Ala, Arg255 to Ala and Trp258 to Ala (receptor)
chain: GMGCSSPPCECHQEEDFRVTCKDIQRIPSLPPSTQTLKLIETHLRTIPSHAFSNLPNISRIYVSIDVTLQQLESHSFYNLSKVTHIEIRNTRNLTYIDPDALKELPLLKFLGIFNTGLKMFPDLTKVYSTDIFFILEITDNPYMTSIPVNAFQGLCNETLTLKLYNNGFTSVQGYAFNGTKLDAVYLNKNKYLTVIDKDAFGGVYSGPSLLAVSQTSVTALPSKGLEHLKELIAANTATLKKLPLSLSFLHLTRADLSYPSHCCAFKNQKKIRGILESLMCNESSMQSLRQRKSVNALNSPLHQEYEENLGDSIVGYKEKSKFQDTHNNAHYYVFFEEQEDEIIGFGQELKNPQEETLQAFDSHYDYTICGDSEDMVCTPKSDEFNPCEDIMGYKFLRIVVWFVSLLALLGNVFVLLILLTSHYKLNVPRFLMCNLAFADFCMGMYLLLIASVDLYTHSEYYNHAIDWQTGPGCNTAGFFTVFASELSVYTLTVITLERWYAITFAMRLDRKIRLRHACAIMVGGWVCCFLLALLPLVGISSYAKVSICLPMDTETPLALAYIVFVLTLNIVAFVIVCCCYVKIYITVRNPQYNPGDKDTKIAKRMAVLIFTDFICMAPISFYALSAILNKPLITVSNSKILLVLFYPLNSCANPFLYAIFTKAFQRDVFILLSKFGICKRQAQAYRGQRVPPKNSTDIQVQKVTHEMRQGLHNMEDVYELIENSHLTPKKQGQISEEYMQTVL
notes: whole, on cells; as m1
B2: TSHR Arg255 to Ala, Trp258 to Ala, Tyr185 to Ala and Lys183 to Ala (receptor)
chain: GMGCSSPPCECHQEEDFRVTCKDIQRIPSLPPSTQTLKLIETHLRTIPSHAFSNLPNISRIYVSIDVTLQQLESHSFYNLSKVTHIEIRNTRNLTYIDPDALKELPLLKFLGIFNTGLKMFPDLTKVYSTDIFFILEITDNPYMTSIPVNAFQGLCNETLTLALANNGFTSVQGYAFNGTKLDAVYLNKNKYLTVIDKDAFGGVYSGPSLLDVSQTSVTALPSKGLEHLKELIAANTATLKKLPLSLSFLHLTRADLSYPSHCCAFKNQKKIRGILESLMCNESSMQSLRQRKSVNALNSPLHQEYEENLGDSIVGYKEKSKFQDTHNNAHYYVFFEEQEDEIIGFGQELKNPQEETLQAFDSHYDYTICGDSEDMVCTPKSDEFNPCEDIMGYKFLRIVVWFVSLLALLGNVFVLLILLTSHYKLNVPRFLMCNLAFADFCMGMYLLLIASVDLYTHSEYYNHAIDWQTGPGCNTAGFFTVFASELSVYTLTVITLERWYAITFAMRLDRKIRLRHACAIMVGGWVCCFLLALLPLVGISSYAKVSICLPMDTETPLALAYIVFVLTLNIVAFVIVCCCYVKIYITVRNPQYNPGDKDTKIAKRMAVLIFTDFICMAPISFYALSAILNKPLITVSNSKILLVLFYPLNSCANPFLYAIFTKAFQRDVFILLSKFGICKRQAQAYRGQRVPPKNSTDIQVQKVTHEMRQGLHNMEDVYELIENSHLTPKKQGQISEEYMQTVL
notes: whole, on cells; as m1
B3: TSHR Trp258 to Ala, Lys183 to Ala and Tyr185 to Ala (receptor)
chain: GMGCSSPPCECHQEEDFRVTCKDIQRIPSLPPSTQTLKLIETHLRTIPSHAFSNLPNISRIYVSIDVTLQQLESHSFYNLSKVTHIEIRNTRNLTYIDPDALKELPLLKFLGIFNTGLKMFPDLTKVYSTDIFFILEITDNPYMTSIPVNAFQGLCNETLTLALANNGFTSVQGYAFNGTKLDAVYLNKNKYLTVIDKDAFGGVYSGPSLLDVSQTSVTALPSKGLEHLKELIARNTATLKKLPLSLSFLHLTRADLSYPSHCCAFKNQKKIRGILESLMCNESSMQSLRQRKSVNALNSPLHQEYEENLGDSIVGYKEKSKFQDTHNNAHYYVFFEEQEDEIIGFGQELKNPQEETLQAFDSHYDYTICGDSEDMVCTPKSDEFNPCEDIMGYKFLRIVVWFVSLLALLGNVFVLLILLTSHYKLNVPRFLMCNLAFADFCMGMYLLLIASVDLYTHSEYYNHAIDWQTGPGCNTAGFFTVFASELSVYTLTVITLERWYAITFAMRLDRKIRLRHACAIMVGGWVCCFLLALLPLVGISSYAKVSICLPMDTETPLALAYIVFVLTLNIVAFVIVCCCYVKIYITVRNPQYNPGDKDTKIAKRMAVLIFTDFICMAPISFYALSAILNKPLITVSNSKILLVLFYPLNSCANPFLYAIFTKAFQRDVFILLSKFGICKRQAQAYRGQRVPPKNSTDIQVQKVTHEMRQGLHNMEDVYELIENSHLTPKKQGQISEEYMQTVL
notes: whole, on cells; as m1
B4: TSHR Arg255 to Ala, Lys183 to Ala and Tyr185 to Ala (receptor)
chain: GMGCSSPPCECHQEEDFRVTCKDIQRIPSLPPSTQTLKLIETHLRTIPSHAFSNLPNISRIYVSIDVTLQQLESHSFYNLSKVTHIEIRNTRNLTYIDPDALKELPLLKFLGIFNTGLKMFPDLTKVYSTDIFFILEITDNPYMTSIPVNAFQGLCNETLTLALANNGFTSVQGYAFNGTKLDAVYLNKNKYLTVIDKDAFGGVYSGPSLLDVSQTSVTALPSKGLEHLKELIAANTWTLKKLPLSLSFLHLTRADLSYPSHCCAFKNQKKIRGILESLMCNESSMQSLRQRKSVNALNSPLHQEYEENLGDSIVGYKEKSKFQDTHNNAHYYVFFEEQEDEIIGFGQELKNPQEETLQAFDSHYDYTICGDSEDMVCTPKSDEFNPCEDIMGYKFLRIVVWFVSLLALLGNVFVLLILLTSHYKLNVPRFLMCNLAFADFCMGMYLLLIASVDLYTHSEYYNHAIDWQTGPGCNTAGFFTVFASELSVYTLTVITLERWYAITFAMRLDRKIRLRHACAIMVGGWVCCFLLALLPLVGISSYAKVSICLPMDTETPLALAYIVFVLTLNIVAFVIVCCCYVKIYITVRNPQYNPGDKDTKIAKRMAVLIFTDFICMAPISFYALSAILNKPLITVSNSKILLVLFYPLNSCANPFLYAIFTKAFQRDVFILLSKFGICKRQAQAYRGQRVPPKNSTDIQVQKVTHEMRQGLHNMEDVYELIENSHLTPKKQGQISEEYMQTVL
notes: whole, on cells; as m1
B5: TSHR Arg255 to Ala, Trp258 to Ala and Tyr185 to Ala (receptor)
chain: GMGCSSPPCECHQEEDFRVTCKDIQRIPSLPPSTQTLKLIETHLRTIPSHAFSNLPNISRIYVSIDVTLQQLESHSFYNLSKVTHIEIRNTRNLTYIDPDALKELPLLKFLGIFNTGLKMFPDLTKVYSTDIFFILEITDNPYMTSIPVNAFQGLCNETLTLKLANNGFTSVQGYAFNGTKLDAVYLNKNKYLTVIDKDAFGGVYSGPSLLDVSQTSVTALPSKGLEHLKELIAANTATLKKLPLSLSFLHLTRADLSYPSHCCAFKNQKKIRGILESLMCNESSMQSLRQRKSVNALNSPLHQEYEENLGDSIVGYKEKSKFQDTHNNAHYYVFFEEQEDEIIGFGQELKNPQEETLQAFDSHYDYTICGDSEDMVCTPKSDEFNPCEDIMGYKFLRIVVWFVSLLALLGNVFVLLILLTSHYKLNVPRFLMCNLAFADFCMGMYLLLIASVDLYTHSEYYNHAIDWQTGPGCNTAGFFTVFASELSVYTLTVITLERWYAITFAMRLDRKIRLRHACAIMVGGWVCCFLLALLPLVGISSYAKVSICLPMDTETPLALAYIVFVLTLNIVAFVIVCCCYVKIYITVRNPQYNPGDKDTKIAKRMAVLIFTDFICMAPISFYALSAILNKPLITVSNSKILLVLFYPLNSCANPFLYAIFTKAFQRDVFILLSKFGICKRQAQAYRGQRVPPKNSTDIQVQKVTHEMRQGLHNMEDVYELIENSHLTPKKQGQISEEYMQTVL
notes: whole, on cells; as m1

The target in the assay is porcine TSH (RSR Ltd, 70 units per mg) (porcine, UniProt P01219 25-120; P01224 21-132). In words: Scatchard, 125I-ligand, solubilised TSHR on tubes.
Take B1: the binding result was “no binding”.
For B2 the value was “no binding”; for B3, “no binding”.
For B4 the value was “no binding”; for B5, “no binding”.

For the origin of these results see patent publication US9046519 (RSR, dated 2015).
